Assays:
[1] = target: Glutaconate CoA-transferase from A. fermentans (Acidaminococcus fermentans, UniProt Q59111+Q59112); conditions: Buckel et al. 1981; cited from earlier work
[2] = substrate: CC(C)(COP(=O)(O)OP(=O)(O)OC[C@H]1O[C@@H](n2cnc3c(N)ncnc32)[C@H](O)[C@@H]1OP(=O)(O)O)[C@@H](O)C(=O)NCCC(=O)NCCSC(=O)[C@H](O)CCC(=O)O; test: Substrate kinetics of 2-hydroxyglutaryl-CoA dehydratase with activator; format: biochemical, Clostridium symbiosum; conditions: other: substrate of the dehydratase; pH 7.0
Description: (§1) 2-Hydroxyglutaryl-CoA dehydratase activity was measured under anoxic conditions at ambient temperature in cuvettes of 0.5 ml total volume containing 50 mM Mops/KOH pH 7.0, 10 mM dithiothreitol, 5 mM MgCl2, 0.1 mM dithionite, 0.4 mM ATP, and […] with activator. After 10 minutes of incubation the reaction was started with 2 mM acetyl-CoA and 2 mM (R)-2-hydroxyglutarate. The increase of absorbance due to the formation of glutaconyl-CoA was followed at 290 nm (ε=2.2 mM^−1 cm^−1) (Kim J, Darley D J, Buckel W, Pierik A J (2008) An allylic ketyl radical intermediate in clostridial amino-acid fermentation. Nature 452:239-242).
(§2) a) 2-Hydroxyglutaryl-CoA dehydratase from Clostridium symbiosum and activator from Acidaminococcus fermentans

[3] = substrate: CC(C)(COP(=O)(O)OP(=O)(O)OC[C@H]1O[C@@H](n2cnc3c(N)ncnc32)[C@H](O)[C@@H]1OP(=O)(O)O)[C@@H](O)C(=O)NCCC(=O)NCCSC(=O)/C=C/C=C/C(=O)O; test: as above; format: biochemical, Clostridium symbiosum; conditions: other: substrate of the dehydratase; pH 7.0
Description: as §1, §2

[4] = substrate: CC(C)(COP(=O)(O)OP(=O)(O)OC[C@H]1O[C@@H](n2cnc3c(N)ncnc32)[C@H](O)[C@@H]1OP(=O)(O)O)[C@@H](O)C(=O)NCCC(=O)NCCSC(=O)C(O)CCCC(=O)O; test: as above; format: biochemical, Clostridium symbiosum; conditions: other: substrate of the dehydratase; pH 7.0
Description: as §1, §2

[5] = 2-Hydroxyglutaryl-CoA dehydratase activity in recombinant E. coli BL21; format: biochemical, C. symbiosum; conditions: recombinant E. coli BL21, with activator
Description: as §1
(§3) The genes were transformed into modified E. coli BL21-CodonPlus (DE3). An overnight anaerobic preculture (100 ml) of a fresh single colony was used to inoculate 1 liter Standard I medium, described above, containing antibiotics (carbenicillin, 100 μg·ml^−1; chloramphenicol, 50 μg·ml^−1) and grown at the same conditions. When the culture reached OD578=0.2, gene expression was induced with isopropyl-1-thio-β-D-galactoside, IPTG (240 mg·liter^−1) and anhydrotetracycline, AHT (200 μg·liter^−1). […]
(§4) In Table 9 the enzymatic activities are shown, which were measured in the recombinant E. coli strain.

[6] = 2-Hydroxyglutarate dehydrogenase activity in recombinant E. coli BL21; format: biochemical, A. fermentans
Description: 2-Hydroxyglutarate dehydrogenase activity was measured at ambient temperature in cuvettes of 0.5 ml total volume containing 0.1 M Tris/HCl pH 8.0, 0.2 mM NADH and 2-hydroxyglutarate dehydrogenase at room temperature. After addition of 1 mM α-ketoglutarate, the absorbance decrease of NADH was monitored at 340 nm (ε=6.3 mM^−1 cm^−1) (Bresser J (1997) (R)-2-Hydroxyglutarat-Dehydrogenase aus Acidaminococcus fermentans. PhD Thesis, Philipps-Universitä t Marburg, Germany; Martins B M, Macedo-Ribeiro S, Bresser J, Buckel W, Messerschmidt A (2005) Structural basis for stereo-specific catalysis in NAD^+-dependent (R)-2-hydroxyglutarate dehydrogenase from Acidaminococcus fermentans. Febs J 272:269-281).
as §3, §4

[7] = Glutaconate CoA-transferase activity in recombinant E. coli BL21; format: biochemical, A. fermentans
Description: Glutaconate CoA-transferase activity assay was performed aerobically at room temperature. The increase of absorbance was followed at 412 nm, Δε=14 mM^−1 cm^−1.
The genes were transformed into modified E. coli BL21-CodonPlus (DE3). An overnight anaerobic preculture (100 ml) of a fresh single colony was used to inoculate 1 liter Standard I medium, described above, containing antibiotics (carbenicillin, 100 μg·ml^−1; chloramphenicol, 50 μg·ml^−1) and grown at the same conditions. When the culture reached OD578=0.2, gene expression was induced with isopropyl-1-thio-β-D-galactoside, IPTG (240 mg·liter^−1) and anhydrotetracycline, AHT (200 μg·liter^−1). Cells were harvested 3 hours after induction (at OD578=0.573), washed and suspended in 20 ml of buffer (50 mM MOPS, 5 mM MgCl2 and 2 mM DTT) under anoxic conditions. The induced E. coli cells were lysed by French press and cell debris was removed by ultracentrifugation at 100 000 g at 4° C. for 1 hour.
as §4

O=C(O)CC[C@@H](O)C(=O)O [(R)-2-hydroxyglutarate]
Substrate of the enzyme [1]: acts on

O=C(O)CCCCC(=O)O [adipate]
Substrate of the enzyme [1]: acts on

CCC(=O)O [propionate]
Substrate of the enzyme [1]: acts on

O=C(O)/C=C/CC(=O)O [(E)-glutaconate]
Substrate of the enzyme [1]: acts on

CC(=O)O [acetate]
Substrate of the enzyme [1]: acts on

C=CC(=O)O [acrylate]
Substrate of the enzyme [1]: acts on

B1: 2-Hydroxyglutaryl-CoA dehydratase from Clostridium symbiosum and activator from Acidaminococcus fermentans ([Clostridium] symbiosum) (protein)
chain 1: MAKQVSPGVLALRKVVDDVHKEAREAKARGELVGWSSSKFPCELAAAFDLNVMYPENQAAGIAANRYGEMMCQAAEDLGYDNDICGYARISLAYAAGVRVSRKYDAETGEYIIDPATGKPLKDAEGNVVIDEATGKPKKDPKTQTPYLVLDNLLEIEALPDGPEKERRLEAISPIRQMRIPQPDFVLCCNNICNCMTKWYENIARMCNVPLIMIDIPYNNTVEVHDDNVKYVRAQFDKAIKQLEELTGKKFDEKKFEKACSNANRTAQAWLKVCDYLQYKPAPYSGFDLFNHMADVVTARARVEAAEAFELLADDLEETVKKGETTTPFPEKYRVMFEGIPCWPKLPNLFKPLKEHGVNVTAVVYAPAFGFVYNNIDEMARAYYKAPNSVCIEQGVDWREGICRDNKVDGVLVHYNRSCKPWSGYMAEMQRRFTEDLGVPCAGFDGDQADPRNFNAAQYETRVQGLVEAMEANKQAKEAK
chain 2: MSINALLDEFKVKAATPKQQLAEYKAQGKKVIGVLPYYAPEELVYAAGMVPMGIWGSNNKTISRAKEYCATFYCTIAQLALEMLLDGTMDQLDGIITPTICDTLRPMSQNFRVAMGDKMAVIFLAQPQNRFEDFGLQFSVDQYTNVKKELEKVAGKEITNEAIQDAIKVYNKSRAARRKFVELASAHCDVITPTKRSAVLKSFFFMEKPEYIEKLEELNAELEKLPVCDWQGTKVVTSGIICDNPKLLEIFEENNIAIAADDVGHESRSFRVDAPEDEADALMALAKQFANMDYDVLLYDPKSTENRRGEFIANMVKESGAQGLVLFMQQFCDPEEMEYPYLKKALNNAGIPHIKLGIDQQMRDFGQASTAIQAFADVLEMQK
Km [2]: 52 µM
kcat [2]: 83 s⁻¹
Km [3]: 570 µM
kcat [3]: 1.9 s⁻¹
Km [4]: 100 µM
kcat [4]: 17.4 s⁻¹

B2: 2-Hydroxyglutaryl-CoA dehydratase + activator: dehydratase (hgdAB) from C. symbiosum with activator (hgdC) from A. fermentans, expressed in E. coli BL21 (protein, listed as Clostridium symbiosum)
chain 1: B1 chain 1
chain 2: B1 chain 2
chain 3: MSIYTLGIDVGSTASKCIILKDGKEIVAKSLVAVGTGTSGPARSISEVLENAHMKKEDMAFTLATGYGRNSLEGIADKQMSELSCHAMGASFIWPNVHTVIDIGGQDVKVIHVENGTMTNFQMNDKCAAGTGRFLDVMANILEVKVSDLAELGAKSTKRVAISSTCTVFAESEVISQLSKGTDKIDIIAGIHRSVASRVIGLANRVGIVKDVVMTGGVAQNYGVRGALEEGLGVEIKTSPLAQYNGALGAALYAYKKAAK
modifications: Acidaminococcus fermentans
Activity, U [5]: 0.23 U
Specific activity, U/mg [5]: 0.80 U/mg

B3: 2-Hydroxyglutarate dehydrogenase: enzyme from A. fermentans (hgdH) expressed in recombinant E. coli BL21 (protein)
chain: MKVLCYGVRDVELPIFEACNKEFGYDIKCVPDYLNTKETAEMAAGFDAVILRGNCFANKQNLDIYKKLGVKYILTRTAGTDHIDKEYAKELGFPMAFVPRYSPNAIAELAVTQAMMLLRHTAYTTSRTAKKNFKVDAFMFSKEVRNCTVGVVGLGRIGRVAAQIFHGMGATVIGEDVFEIKGIEDYCTQVSLDEVLEKSDIITIHAPYIKENGAVVTRDFLKKMKDGAILVNCARGQLVDTEAVIEAVESGKLGGYGCDVLDGEASVFGKDLEGQKLENPLFEKLVDLYPRVLITPHLGSYTDEAVKNMVEVSYQNLKDLAETGDCPNKIK
modifications: Acidaminococcus fermentans
notes: enzyme from A. fermentans (hgdH) expressed in recombinant E. coli BL21
Activity, U [6]: 730 U
Specific activity, U/mg [6]: 250 U/mg

B4: Glutaconate CoA-transferase: enzyme from A. fermentans (gctAB) expressed in recombinant E. coli BL21 (protein)
chain 1: LSKVMTLKDAIAKYVHSGDHIALGGFTTDRKPYAAVFEILRQGITDLTGLGGAAGGDWDMLIGNGRVKAYINCYTANSGVTNVSRRFRKWFEAGKLTMEDYSQDVIYMMWHAAALGLPFLPVTLMQGSGLTDEWGISKEVRKTLDKVPDDKFKYIDNPFKPGEKVVAVPVPQVDVAIIHAQQASPDGTVRIWGGKFQDVDIAEAAKYTIVTCEEIISDEEIRRDPTKNDIPGMCVDAVVLAPYGAHPSQCYGLYDYDNPFLKVYDKVSKTQEDFDAFCKEWVFDLKDHDEYLNKLGATRLINLKVVPGLGYHIDMTKEDK
chain 2: MADYTNYTNKEMQAVTIAKQIKNGQVVTVGTGLPLIGASVAKRVYAPDCHIIVESGLMDCSPVEVPRSVGDLRFMAHCGCIWPNVRFVGFEINEYLHKANRLIAFIGGAQIDPYGNVNSTSIGDYHHPKTRFTGSGGANGIATYSNTIIMMQHEKRRFMNKIDYVTSPGWIDGPGGRERLGLPGDVGPQLVVTDKGILKFDEKTKRMYLAAYYPTSSPEDVLENTGFDLDVSKAVELEAPDPAVIKLIREEIDPGQAFIQVPTEAK
modifications: Acidaminococcus fermentans
notes: enzyme from A. fermentans (gctAB) expressed in recombinant E. coli BL21
Activity, U [7]: 0.71 U
Specific activity, U/mg [7]: 0.25 U/mg
